Experimental findings from paper PMC12117093 are described below.

The test addresses 5-IAF-labeled p53-TAD A63C mutant (UniProt P04637). The test is described as follows: fluorescence polarisation.

For the substance “FOXO4 Forkhead DNA-binding domain (FOXO4-DBD, residues 86-211) (from UniProt P98177 86-211) (domain or fragment)”, the Kd worked out at 42 µM.
